Laboratory results: patent US20260219283A1
“And” between values parts separate entries of the source, which are not always exact repeats. Equal entries are not always repeated.

Biological target: semi-synthetic pS129-α-synuclein (Proteos Inc.) (Homo sapiens (Human)) (UniProt P37840)
Assay: sandwich ECLIA, freshly prepared pS129-α-syn standard at 100 ng/mL

- ECLIA signal at 100 ng/mL standard: 500000 and 1.1e+06
Substance: anti-pS129-α-syn monoclonal antibody EP1536Y
